Reference: the nanobody polyreactivity screen of Harvey et al. (2022)

Experiment: yeast display, Sf9 membrane polyspecificity reagent, FACS + sequencing; frameworks hold sequencing errors
In short: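 A synthetic nanobody library was expressed on Saccharomyces cerevisiae BJ5465 by galactose induction for 36–48 hours. The library was stained for 1 hour at 4 °C with 10% biotinylated, detergent-solubilized Sf9 membrane reagent and enriched with streptavidin microbeads before FACS. Low and high (top ~1%) gates were set on anti-HA fluorescence for expression and streptavidin fluorescence for reagent binding, and each polyreactivity label reflects the gate of origin.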

For “QLQLEESGGGLVQAGGSLRLSFAASGLTFGRNAMGWYRQATGKVREFVAAISKSGTSTYYADSVKGRFTISRDNAKNTVYLQMISLKPEDTAVYDCARTNYAKRWDFDYWGQGTQVTVSS”, which “polyreactivity (PSR sort gate)” value is on record?
The value was “low polyreactivity”.

For “QLQLGESGGGLVQAGGSLRLSCAASGRTFKDYAMGWYREAPGKERELVAAISWSGGDTYYADSVKGRFTISRDNAKNTVYLQMNSLKPEDTAVYYCNADPSGVFFYSLEFEYWGQGTQVTVSS”, which “polyreactivity (PSR sort gate)” value is on record?
Its value is “low polyreactivity”.

Which “polyreactivity (PSR sort gate)” value does the source give for “QLQLHESGGGLVQAGGSLRLSCAASGTISYAGPMGWYRQAPGKEREFVAGIGVGSNTNYADSVKGRYTIIRDNAKNTVYLQMNSLKPEDTAVYYCAVGGYAPLGRPYWGQGTQVTVSS” here?
The value was “low polyreactivity”.

Which “polyreactivity (PSR sort gate)” value does the source give for “QLQLLESGGGLDQPGGSLRLSSAASGRTFYRYVMGWYRQEPGKERELVAAIRSSGTTTYYADSVKGRFTISRDNAKNTVYIKMNCVIPEDTAVYYCARDSYRGYVYSLDYWGQGTQVTVSS” here?
Its value is “high polyreactivity”.

Which “polyreactivity (PSR sort gate)” value does the source give for “QLQLQESGGGLVQAGGSLRLSCAASGSISRMDYMAWYRQASGKERELVAAIDNGSTTYYADSVKGRLTISRDNAKYTVYLQMNSLKPEDSAVYFCAAVRGRGGTHAYWGQGTQVTVSG” here?
Its value is “low polyreactivity”.

For “QLQLQESIGGLVQAGGSLRMSCAASGTIFHFHIMGWYRQAPGKEREFVAAISYGTSTYYADSVKGRFTISRDNAKNTVYLHMNSQKPEDTAVYYCAVYDYLEVYCWYWGQGTQVTLSS”, which “polyreactivity (PSR sort gate)” value is on record?
Its value is “low polyreactivity”.

For “QLQLVDSGGGLVQAGGSLRLSCAASGLIFPAYTMGWYRQAPGKQRELVAAISRSGGSTYYADSVKGRFTISRDNAKNTVYLQMNSLKTEDTAVYYCAAFYSGGYDYWGQGTQVTVSS”, which “polyreactivity (PSR sort gate)” value is on record?
The value was “high polyreactivity”.

Which “polyreactivity (PSR sort gate)” value does the source give for “QLQLVESGAGLVQAGGSLRLICAASGSIFKSYAMGWYRQAPGKQMEFVAAISWSGGSTYADSVKGRFTISRDNAKNTVYLQMNSLKPEDTAVYYCNKDDYWFLGFYYWGQGTQVTVSS” here?
Its value is “low polyreactivity”.

Which “polyreactivity (PSR sort gate)” value does the source give for “QLQLVESGGALVQAGGSLRLSCAASGSTFTVNGMGWYRQAPGKERELVAAIDGGDGSTYYADSVKGRFTISRDNAKNTVYLQMNSLKPEDTAVYYCAADPPGFTQYGYWGQGTKVTVSS” here?
The value was “low polyreactivity”.

Which “polyreactivity (PSR sort gate)” value does the source give for “QLQLVESGGGIVQAGGSLRLSCAPSGRIFFPNAMGSYRQAPGTERELVAGISIGGSTNYADSVKGRFTISRDNAKNTVYLQMNSLKPEDTAVYYWAARSPFGRWRDYWGQGTQVTVSS” here?
The value was “low polyreactivity”.

Which “polyreactivity (PSR sort gate)” value does the source give for “QLQLVESGGGLDQAGGSLRLSCAASRYTMGWYRQAPGKEMELVPAITGGGSTNYADSVKGRFTISRDNAKNTVYLHMNSLKPEDTAVYYCAVDYAVSYAGWVLRYDYWGQGTQVTVSS” here?
Its value is “low polyreactivity”.

With “QLQLVESGGGLVQAGGRLRLSCAASGLTFQYNAMGWYRQAPGKERELVASINSGGSTDYADSVKGRFTISRDNAKNTVYLQMNRLKQEDTAVYYCASSGYWYSASYGYEYWGQGTQVTVSS” as the sequence, how does the “polyreactivity (PSR sort gate)” value read?
Its value is “low polyreactivity”.

For “QLQLVESGGGLVQAGGRLRLSCASSGSTFHSYVMGWYRPAPGKERELVAAITSRGGSTNYADSVKGRFTISRENAKNTVYLHMNSLKPEDTAVYYCAADGYWGWSYFRYDYLGQGTQVTVSS”, which “polyreactivity (PSR sort gate)” value is on record?
The value was “low polyreactivity”.

Which “polyreactivity (PSR sort gate)” value does the source give for “QLQLVESGGGLVQAGGRLRLSSAASGRTFRYYAMGWYRQAAGKERELVASITSGGRTYYADSVKGRFTISRDNAKNTVYLQMNSLKPEDTAVYYCAADRFGIGGKRGNDYWGQGTQVTVSS” here?
The value was “high polyreactivity”.

With “QLQLVESGGGLVQAGGSLRISCAASGSTFGRNAMGWYRQAPGKERELVAVISKSGGSTYYADSVKGRFTISRDNAKNTVYLQMNSLKPEDTAVYYCAARYYSYWREYQHFDYWGQGTQVTVSS” as the sequence, how does the “polyreactivity (PSR sort gate)” value read?
The value was “high polyreactivity”.

Which “polyreactivity (PSR sort gate)” value does the source give for “QLQLVESGGGLVQAGGSLRLSCAASGFIDAYTMGWYRQAPGKERELVAAITWSGGRTYYADSVKGRFTISRDNAKNTVYIQRNSLKPEDNAVYYCAKDVTPYSPDEDYWGQGSQVTVSS” here?
The value was “low polyreactivity”.

Which “polyreactivity (PSR sort gate)” value does the source give for “QLQLVESGGGLVQAGGSLRLSCAASGFTFRWYVMGWYRQAPCKQRELVASIRSGGSTYYADSVKGRFTISRDNAKNTVYLQMNSLKPEDTAVYYCAARFGRDRYYYWGQGTQVTVSS” here?
The value was “high polyreactivity”.

For “QLQLVESGGGLVQAGGSLRLSCAASGFTFYAYAMGWYRQAPGKERELVAAINSGGGSRTYYADSVKGRFTISRDNAKNTVYLQMNCLKPEDTAVYYCAARVYGVDGYGYWGQGTEVTVSS”, which “polyreactivity (PSR sort gate)” value is on record?
The value was “high polyreactivity”.

Which “polyreactivity (PSR sort gate)” value does the source give for “QLQLVESGGGLVQAGGSLRLSCAASGGTFYSYEMGWYRQATVKEREFVAAITYGGGSTYYADSVKGRFTMSRDNAKNTDYLQMNSLKPEDTAVYYCYARRYGSRLGERYYYWGQGTQVTVSS” here?
The value was “high polyreactivity”.

With “QLQLVESGGGLVQAGGSLRLSCAASGITFVHNAMGWYRQAPGKEREFVAAITSSGVSTYYADSVKVRFTISRDNAKNTVYLQMNSLKPEDTAVYYCAARLSTRHWFYYWGQGTQVTVSS” as the sequence, how does the “polyreactivity (PSR sort gate)” value read?
The value was “high polyreactivity”.

Which “polyreactivity (PSR sort gate)” value does the source give for “QLQLVESGGGLVQAGGSLRLSCAASGLIFYDNMAWSRPAPAKEMELVAAISSSGGSTSYADSVKGRFSISRDNAKNTVYLQLISLKPEDTAVYYCAADSYPAYLGFVGFDYWGQGTQVTVSS” here?
The value was “low polyreactivity”.

With “QLQLVESGGGLVQAGGSLRLSCAASGLTFVDYAMGWYRQAPGKERELVAAITSSGGSITYYADSVKGRFTISRDNAKNTVYLQLNSLKPEDTAVYYCNADYGIYTDSFRGPDYESWGQGTQVTVSS” as the sequence, how does the “polyreactivity (PSR sort gate)” value read?
Its value is “low polyreactivity”.

With “QLQLVESGGGLVQAGGSLRLSCAASGRIFKEYAMGWYRQAPGQERELVAAISWRGGSTYYADSVKGRFTISRDNAKNTVNLQMNSLKPEDTAVYYCARVVSRNTHPYYHWGQVTQVTVSS” as the sequence, how does the “polyreactivity (PSR sort gate)” value read?
Its value is “low polyreactivity”.

For “QLQLVESGGGLVQAGGSLRLSCAASGRIFKLNAMGWSRQAPGKERELVAAINSGTRTYYADSVKGRFTISRDNAKNTVYLQMNSLKPEDTAVYYCAAEGVWWYSRYDYWGQGTQVTVSS”, which “polyreactivity (PSR sort gate)” value is on record?
The value was “high polyreactivity”.

For “QLQLVESGGGLVQAGGSLRLSCAASGRIFTYNALGWYRQAPGKERELVARIRRSGGTYYADSVKGRFTISRDNAKNTVYLQMNSLKPEDTAVYYCAVDLYIYYREYDYWGQGTQVTVSS”, which “polyreactivity (PSR sort gate)” value is on record?
Its value is “high polyreactivity”.

Which “polyreactivity (PSR sort gate)” value does the source give for “QLQLVESGGGLVQAGGSLRLSCAASGRIFVANTMGWYRQAPGKERELVAAISRGSTYYADSVKGRFTISRDNAKNTVYLQMKSLKPEDTAVYYCAVKLAYGYYYWGLGTQVTVSS” here?
Its value is “high polyreactivity”.

For “QLQLVESGGGLVQAGGSLRLSCAASGRIFVYYAMGWYRQAPGKERELVASISYSGASTYYADSVKGRFTISRDNAKNTVYFQMNSLKPEDTAVYYCNTDGDDFFHVIYDYWGQGTQVTVSS”, which “polyreactivity (PSR sort gate)” value is on record?
The value was “low polyreactivity”.

With “QLQLVESGGGLVQAGGSLRLSCAASGRNFVHNAMGWYRPAPGKEREFVAAISLRGGSTYYADSVKGRFTTSRDNAKNSVYLQMNSLKPEDTAVYYCAAVPAHFYGYDYWGQGTQVTVSS” as the sequence, how does the “polyreactivity (PSR sort gate)” value read?
The value was “low polyreactivity”.

With “QLQLVESGGGLVQAGGSLRLSCAASGRTFFRYVMGWYRQAPGKERELVAAISTRGGSTYYADSVKGRFTISRDNAKNTVYLQMNSLKPEDTAVYYCAARFKVRDYSYNYWGQGTQVTVSS” as the sequence, how does the “polyreactivity (PSR sort gate)” value read?
The value was “high polyreactivity”.

With “QLQLVESGGGLVQAGGSLRLSCAASGRTFQPYAMGWYRQAPGKERELVAAITSIGGSTFYADSVKGRFTISRDNAKNTVYLQMNSLKPEDTAVYYCAADPYTLYWYYWYGTSGFDYWGQGTQVTVSS” as the sequence, how does the “polyreactivity (PSR sort gate)” value read?
Its value is “low polyreactivity”.

Which “polyreactivity (PSR sort gate)” value does the source give for “QLQLVESGGGLVQAGGSLRLSCAASGRTFVRYAMGWYRQAPGKERELVAGISRSTGGTYYADSVKGRFTISRDNAKNTVYLQMNSLKPEDTAVYYCAAVYHKNGSGDYSWGQGTQVTVSS” here?
Its value is “high polyreactivity”.

With “QLQLVESGGGLVQAGGSLRLSCAASGRTFWYYAMGWYRQAPGKESELVAGISRGGSTNYADSVKGRFTISRDNAKNTVYLQMKSLKPADTAVYYCIVGRWYSQGTTGVFKGGYWGQGTQVTVSS” as the sequence, how does the “polyreactivity (PSR sort gate)” value read?
The value was “low polyreactivity”.

For “QLQLVESGGGLVQAGGSLRLSCAASGSIFQYNAMGLYRQAPGKRELVAALNRSGGSTYYGDSVKGRFTISRDNAKNTVDLQMNSLKPEDTAVYYCAAGVFYFLKYTVSFINYYWRQGTQVTVSS”, which “polyreactivity (PSR sort gate)” value is on record?
The value was “high polyreactivity”.

For “QLQLVESGGGLVQAGGSLRLSCAASGSIFRVYAMGWYRQARGKERELVAAISSSGVRTSYADSVKGRFTISRDNAKNTVYLQMNSLKPEDTAVYYCADRYPYGYYHWGQGTQVTVSS”, which “polyreactivity (PSR sort gate)” value is on record?
Its value is “high polyreactivity”.

For “QLQLVESGGGLVQAGGSLRLSCAASGSIFSFYAMGGYRQAPGKERELVATITYGSGSTHYADSVKGRFTISRDNAKNTVYLQLNSLKPEDSAVYYCAGETVRYEWGDSPAALFDYWGQGTQVTVSS”, which “polyreactivity (PSR sort gate)” value is on record?
Its value is “low polyreactivity”.

Which “polyreactivity (PSR sort gate)” value does the source give for “QLQLVESGGGLVQAGGSLRLSCAASGSIFYQYVMGWYRQAPGKEREFVAAIRYTGVGTYYADSVKGRFTLSRDNAKYTVYLQMNSLKPEDTAVYYCAARSYNRRARYDYWGQGTQVNVSS” here?
Its value is “high polyreactivity”.

With “QLQLVESGGGLVQAGGSLRLSCAASGSIIGYYAMGWYRQAHGKERELVAAITASGGSTYYADSVKGRFTISRDNAKNTVYLQMNILKPEDTAVYYCAAGTHTDYGRYYYWGQGTQVTVSS” as the sequence, how does the “polyreactivity (PSR sort gate)” value read?
The value was “low polyreactivity”.

Which “polyreactivity (PSR sort gate)” value does the source give for “QLQLVESGGGLVQAGGSLRLSCAASGSTFALYAMGWYRQAPGKERELVAAITSDGSTKYADSVKGRFTISRDNAKNTVYLQMNSLKPEDTAVYYCNTEYYYPGIPYDYWGQGTQVTVSS” here?
Its value is “high polyreactivity”.

With “QLQLVESGGGLVQAGGSLRLSCAASGSTFHLYAMGCYREAPWNEREFVAAIRGRGGNTYADSVKGRFTISRDNAKNTVYLPMNSLKPEDTAVYYCAAAFYYYGDSDNWGQGTQVTVSS” as the sequence, how does the “polyreactivity (PSR sort gate)” value read?
The value was “low polyreactivity”.

For “QLQLVESGGGLVQAGGSLRLSCAASGSTFSPYAMGWYRQAPGKERDLVAGITSSGGDTYYADSVKGRFTISRDNAKNTVYLQMNSLKPEDSAVYYCAADWWVLGQLWFDYWGQGTQVTVSS”, which “polyreactivity (PSR sort gate)” value is on record?
Its value is “low polyreactivity”.

For “QLQLVESGGGLVQAGGSLRLSCAASGSTFSPYAMGWYRQAPGKERELVAAISASGGGTYYADSVKWRLTISRDNAKNTVYLQMNSLKPEDTAVYYCARDYGWDISKGRYGYWGQGTQVTVSS”, which “polyreactivity (PSR sort gate)” value is on record?
Its value is “low polyreactivity”.
